Laboratory results published in paper PMC9893541 (BMC Biology, 2023).
Where a chain is given by its changes, count along the chain named. Names may count otherwise.

T1: BMP4/GDF5 heterodimer (human, UniProt P12644 293-408; P43026 382-501)
T1 construct: additional Met residue on the N-terminus of the BMP4 construct; bone morphogenetic protein 4 (BMP4), mature domain; Growth and Differentiation Factor 5 (GDF5), mature domain; Made by people from two natural mature chains; disulfide-linked dimer; also called GDF5/BMP4; copies: 1 + 1
T1 sequence 1: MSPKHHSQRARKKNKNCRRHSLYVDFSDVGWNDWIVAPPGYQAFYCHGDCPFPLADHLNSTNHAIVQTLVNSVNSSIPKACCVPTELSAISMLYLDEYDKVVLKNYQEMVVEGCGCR
T1 sequence 2: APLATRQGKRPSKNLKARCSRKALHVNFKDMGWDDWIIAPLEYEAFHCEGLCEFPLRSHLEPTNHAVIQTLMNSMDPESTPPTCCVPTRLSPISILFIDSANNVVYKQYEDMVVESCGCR

T2: FC-(Alk6)2 (UniProt O00238 14-126)
T2 construct: type 1 receptor Alk6 (BMPR1B) in a recombinant chimeric Fc-receptor; also called chimeric FC-receptor; source: bought: R&D (Cat# 505-PR-100)
T2 sequence (looked up): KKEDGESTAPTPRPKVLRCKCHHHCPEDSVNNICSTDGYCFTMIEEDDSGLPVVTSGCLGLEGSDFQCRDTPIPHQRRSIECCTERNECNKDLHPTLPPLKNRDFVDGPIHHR

B1: GDF5 homodimer (ligand, human, UniProt P43026 382-501, looked up)
chain: T1 sequence 2
notes: Growth and Differentiation Factor 5 (GDF5), mature domain; Dimer stabilised by an inter-chain disulfide bond; also called homodimeric GDF5; Growth and Differentiation Factor 5
B2: mature GDF5 (single chain) (natural protein, human, UniProt P43026 382-501, looked up)
chain: T1 sequence 2
notes: Growth and Differentiation Factor 5 (GDF5), mature domain; The single chain before dimerisation; used for the rows on dimer formation; also called GDF5 monomer; GDF5 chain; source: E. coli Rosetta (DE3), inclusion bodies, solubilised in urea, clarified (minimum 90 % purity)
B3: FC-(Alk3)2 (Fc fusion, UniProt P36894 24-152, looked up)
chain: QNLDSMLHGTGMKSDSDQKKSENGVTLAPEDTLPFLKCYCSGHCPDDAINNTCITNGHCFAIIEEDDQGETTLASGCMKYEGSDFQCKDSPKAQLRRTIECCRTNLCNQYLQPTLPPVVIGPFFDGSIR
notes: type 1 receptor Alk3 (BMPR1A) in a recombinant chimeric Fc-receptor; also called chimeric FC-receptor; source: bought: R&D (Cat# 315-BR-100/CF)
B4: BMP4 homodimer (ligand, human)
chain: T1 sequence 1
notes: additional Met residue on the N-terminus of the BMP4 construct; bone morphogenetic protein 4 (BMP4), mature domain; Dimer stabilised by an inter-chain disulfide bond; also called homodimeric BMP4
B5: mature BMP4 (single chain) (natural protein, human)
chain: T1 sequence 1
notes: additional Met residue on the N-terminus of the BMP4 construct; bone morphogenetic protein 4 (BMP4), mature domain; The single chain before dimerisation; used for the rows on dimer formation; also called BMP4 monomer; monomeric BMP4; source: E. coli Rosetta (DE3), inclusion bodies, solubilised in urea, clarified (minimum 90 % purity)
B6: FC-(ActRIIb)2 (Fc fusion, UniProt Q13705-1 19-137, looked up)
chain: SGRGEAETRECIYYNANWELERTNQSGLERCEGEQDKRLHCYASWRNSSGTIELVKKGCWLDDFNCYDRQECVATEENPQVYFCCCEGNFCNERFTHLPEAGGPEVTYEPPPTAPTLLT
notes: type 2 receptor ActRIIb (ACVR2B) in a recombinant chimeric Fc-receptor; also called (ActRIIB)2-Fc; source: bought: R&D (Cat# 339-RB-100/CF)
B7: FC-(BMPR2)2 (Fc fusion, UniProt Q13873 27-150, looked up)
chain: SQNQERLCAFKDPYQQDLGIGESRISHENGTILCSKGSTCYGLWEKSKGDINLVKQGCWSHIGDPQECHYEECVVTTTPPSIQNGTYRFCCCSTDLCNVNFTENFPPPDTTPLSPPHSFNRDET
notes: type 2 receptor BMPR2 in a recombinant chimeric Fc-receptor; source: bought: R&D (Cat# 811-BR-100)
B8: BMP2_L333P/GDF5 heterodimer (complex, human)
chain 1: QAKHKQRKRLKSSCKRHPLYVDFSDVGWNDWIVAPPGYHAFYCHGECPFPPADHLNSTNHAIVQTLVNSVNSKIPKACCVPTELSAISMLYLDENEKVVLKNYQDMVVEGCGCR
chain 2: T1 sequence 2
notes: bone morphogenetic protein 2 (BMP2), mature domain, with L333P; Growth and Differentiation Factor 5 (GDF5), mature domain, wild type; Predicted by the authors to have one disrupted type 1 site (GFBW) and one functional site (BFGW); also called mutant heterodimer; copies: 1 + 1
B9: mature BMP2 (single chain) (natural protein, human, UniProt P12643 283-396, looked up)
chain: B8 chain 1 with P51L
notes: bone morphogenetic protein 2 (BMP2), mature domain; The single chain before dimerisation; used for the rows on dimer formation; also called BMP2 monomer; BMP2 chain; source: E. coli Rosetta (DE3), inclusion bodies, solubilised in urea, clarified (minimum 90 % purity)
B10: mature BMP2 L333P (single chain) (natural protein, human, UniProt P12643 283-396, looked up)
chain: B8 chain 1
notes: bone morphogenetic protein 2 (BMP2), mature domain, with L333P; The single chain before dimerisation; used for the rows on dimer formation; also called L333P BMP2; source: E. coli Rosetta (DE3), inclusion bodies, solubilised in urea

Columns and labels:
[1] = molecular target: B3; assay: SPR; BIAcore T-200; chimeric Fc-type 1 receptor coupled to a Series S Protein A chip; ligands 6.25-0.049 nM flowed at 50 uL/min, 300 s association, 1000 s dissociation; 20 mM HEPES pH 7.4, 350 mM NaCl, 0.005 % P-20, 0.5 mg/mL BSA, 3.4 mM EDTA; kinetic 1:1 fit (also a bivalent fit); apparent KD = kd/ka; average of N=2; settings: both partners purified
[2] = molecular target: the molecule itself; assay: oxidative refolding of mixed chains, heparin affinity chromatography, SDS-PAGE and Western blot (reducing and non-reducing), MALDI-TOF mass spectrometry; solubilised inclusion bodies mixed in a 1:1 molar ratio, refolded 5 days in 0.1 M Tris pH 8.5, 0.5 M L-arginine, 0.3 % CHAPS, 150 mM NaCl, 1 mM reduced and 1 mM oxidized glutathione, 1 mM EDTA; heparin column eluted with 150-650 mM NaCl; disulfide-linked dimers
[3] = molecular target: T1, BMP4/GDF5 heterodimer; assay: SPR; BIAcore T-200; chimeric Fc-type 1 receptor coupled to a Series S Protein A chip; ligands 6.25-0.049 nM flowed at 50 uL/min, 300 s association, 1000 s dissociation; 20 mM HEPES pH 7.4, 350 mM NaCl, 0.005 % P-20, 0.5 mg/mL BSA, 3.4 mM EDTA; kinetic 1:1 fit (also a bivalent fit); apparent KD = kd/ka; average of N=2; settings: both partners purified
[4] = molecular target: B7; assay: SPR; chimeric Fc-type 2 receptor coupled to a Series S Protein A chip; ligands 100-0.198 nM in SPR buffer, 300 s association, 1000 s dissociation; steady-state analysis; apparent affinities; average of N=2; settings: both partners purified
[5] = molecular target: B6; assay: as above; settings: both partners purified
[6] = molecular target: B2; assay: oxidative refolding of mixed chains, heparin affinity chromatography, SDS-PAGE and Western blot (reducing and non-reducing), MALDI-TOF mass spectrometry; solubilised inclusion bodies mixed in a 1:1 molar ratio, refolded 5 days in 0.1 M Tris pH 8.5, 0.5 M L-arginine, 0.3 % CHAPS, 150 mM NaCl, 1 mM reduced and 1 mM oxidized glutathione, 1 mM EDTA; heparin column eluted with 150-650 mM NaCl; disulfide-linked dimers; settings: both partners purified
[7] = molecular target: T3, BMP2/GDF5 heterodimer (human, UniProt P12643 283-396; P43026 382-501); assay: SPR; chimeric Fc-type 2 receptor coupled to a Series S Protein A chip; ligands 100-0.198 nM in SPR buffer, 300 s association, 1000 s dissociation; steady-state analysis; apparent affinities; average of N=2; settings: both partners purified
T3 construct: bone morphogenetic protein 2 (BMP2), mature domain; Growth and Differentiation Factor 5 (GDF5), mature domain; Made by people from two natural mature chains; disulfide-linked dimer; also called GDF5/BMP2; WT heterodimer; copies: 1 + 1

[8] = molecular target: B1; assay: as above; settings: both partners purified
[9] = molecular target: T1, BMP4/GDF5 heterodimer; assay: as above; settings: both partners purified
[10] = molecular target: T2, FC-(Alk6)2; assay: SPR; BIAcore T-200; chimeric Fc-type 1 receptor coupled to a Series S Protein A chip; ligands 6.25-0.049 nM flowed at 50 uL/min, 300 s association, 1000 s dissociation; 20 mM HEPES pH 7.4, 350 mM NaCl, 0.005 % P-20, 0.5 mg/mL BSA, 3.4 mM EDTA; kinetic 1:1 fit (also a bivalent fit); apparent KD = kd/ka; average of N=2; settings: both partners purified

Binder: B1
Kd [1]: 0.328 nM

Binder: B2
binding result [2]: binds

Binder: B3
Kd [3]: 0.029 nM

Binder: B4
binding result [4]: binds | binding result [5]: binds | Kd [1]: 0.072 nM

Binder: B5
binding result [2]: binds | binding result [6]: binds

Binder: B6
binding result [7]: binds | binding result [8]: binds | binding result [9]: binds

Binder: B7
binding result [7]: binds | binding result [9]: binds

Binder: B8
fold decrease in KD (so in the source) against WT GDF5 homodimer [10]: ~5 fold

Binder: B9
binding result [2]: binds | binding result [6]: binds

Binder: B10
binding result [2]: binds | binding result [6]: binds
